The results in this text go back to article PMC12668182, “Molecular basis for CSB stimulation of the SNM1A DNA repair nuclease” (Research Square, 2025).

First the molecules themselves.
B3: N-Avi-Biotin-SNM1A (a.a. 698-1040), wild type (domain or fragment, human, UniProt Q6PJP8 698-1040, looked up)
chain: KKTCPFYKKIPGTGFTVDAFQYGVVEGCTAYFLTHFHSDHYAGLSKHFTFPVYCSEITGNLLKNKLHVQEQYIHPLPLDTECIVNGVKVVLLDANHCPGAVMILFYLPNGTVILHTGDFRADPSMERSLLADQKVHMLYLDTTYCSPEYTFPSQQEVIRFAINTAFEAVTLNPHALVVCGTYSIGKEKVFLAIADVLGSKVGMSQEKYKTLQCLNIPEINSLITTDMCSSLVHLLPMMQINFKGLQSHLKKCGGKYNQILAFRPTGWTHSNKFTRIADVIPQTKGNISIYGIPYSEHSSYLEMKRFVQWLKPQKIIPTVNVGTWKSRSTMEKYFREWKLEAGY
modifications: biotin on the N-terminal Avi tag
notes: SNM1A (DCLRE1A), human, core catalytic domain (MBL-beta-CASP), residues 698-1040; Immobilised in SPR through the biotinylated Avi tag; held on streptavidin mutein beads in the co-purifications; also called N-Avi-SNM1A_(698-1040); core catalytic domain of SNM1A; source: Sf9 insect cells (BirA co-expressed, D-biotin added), purified (streptavidin mutein matrix, Superdex S75); not shown: Avi …
B5: E864A-SNM1A (MBL-beta-CASP domain, a.a. 698-1040), N-Avi (domain or fragment, human, UniProt Q6PJP8 698-1040, looked up)
chain: KKTCPFYKKIPGTGFTVDAFQYGVVEGCTAYFLTHFHSDHYAGLSKHFTFPVYCSEITGNLLKNKLHVQEQYIHPLPLDTECIVNGVKVVLLDANHCPGAVMILFYLPNGTVILHTGDFRADPSMERSLLADQKVHMLYLDTTYCSPEYTFPSQQEVIRFAINTAFAAVTLNPHALVVCGTYSIGKEKVFLAIADVLGSKVGMSQEKYKTLQCLNIPEINSLITTDMCSSLVHLLPMMQINFKGLQSHLKKCGGKYNQILAFRPTGWTHSNKFTRIADVIPQTKGNISIYGIPYSEHSSYLEMKRFVQWLKPQKIIPTVNVGTWKSRSTMEKYFREWKLEAGY
modifications: biotin on the N-terminal Avi tag
notes: SNM1A (DCLRE1A), human, core catalytic domain, residues 698-1040, E864A; also called SNM1A-E864A; SNM1A (E864A); source: Sf9 insect cells (D-biotin added), purified (streptavidin mutein matrix, gel filtration)

Data set [1] deals with B3. Briefly: SPR; single-cycle; SNM1A immobilised via biotinylated N-terminal Avi tag on a Series S SA surface (~4000 RU); CSB constructs as analytes, 5 or 6 two-fold dilutions from 500 nM or 1 uM; 20 mM HEPES pH 7.5, 150 mM NaCl, 0.5 mM TCEP; 1:1 Langmuir fit; apparent KD. Conditions: both partners purified. On the technique in general: SPR reads the build-up and loss of mass on a sensor chip optically.

Data set [2] concerns the target B5. The description is as above. The note with it: both partners purified.
Data set [3] deals with B3. Briefly: pull-down + SEC; co-purification: CSB construct (eluted from Ni-NTA, desalted) incubated with N-Avi-Biotin-SNM1A on streptavidin mutein beads, washed (500 mM NaCl, 1 mM Mg2+), eluted with 5 mM D-biotin, run on Superdex S200 GL 10/300; SDS-PAGE, MS and calibration curve. The note with it: both partners purified.
The target in data set [4] is T1, full-length CSB (ERCC6), wild type, recombinant (human, UniProt Q03468 1-1493).
T1 construct: CSB (ERCC6), human, full length, a.a; A TEV site follows the N-terminal tags, but no cleavage is described; also called FL-CSB; WT-CSB; source: Sf9 insect cells, purified (Ni-NTA, Superdex S200, HiTrap SP)
Kind of data set: SPR; single-cycle; SNM1A immobilised via biotinylated N-terminal Avi tag on a Series S SA surface (~4000 RU); CSB constructs as analytes, 5 or 6 two-fold dilutions from 500 nM or 1 uM; 20 mM HEPES pH 7.5, 150 mM NaCl, 0.5 mM TCEP; 1:1 Langmuir fit; apparent KD. Conditions: both partners purified.

For data set [5], the target named is T1, full-length CSB (ERCC6), wild type, …. Kind of data set: mass photometry; CSB and SNM1A mixed at 200 nM each, 5 min at room temperature, diluted 10-fold into the gasket; 50 mM HEPES pH 7.5, 300 mM NaCl, 0.5 mM TCEP; KD from mass counts. The note with it: both partners purified.
Data set [6] concerns the target B3. Kind of data set: SPR; multi-cycle; SNM1A immobilised via biotinylated N-terminal Avi tag (~4000 RU); two-fold dilutions from 2 uM, 300 s injection, 1200 s dissociation; regeneration with 1 M NaCl; apparent KD. Conditions: both partners purified.
Data set [7] concerns the molecule itself. Kind of data set: SEC-MALS; DN-CSB alone, 5 uM; monomer to dimer. Background: In gel filtration, larger molecules generally elute earlier.

Where “and” joins values, the source holds several entries; their conditions need not be identical. Equal values may be shown once.

B1: CSB winged-helix domain (WHD, a.a. 1424-1493) (domain or fragment, human, UniProt Q03468 1424-1493, looked up)
chain: HDDLLVEMRNFIAFQAHTDGQASTREILQEFESKLSASQSCVFRELLRNLCTFHRTSGGEGIWKLKPEYC
notes: also called CSB-WHD; source: E. coli BL21(DE3) pLysS, purified (Ni-NTA, Superdex S75)
For orientation: stoichiometry N means the number of molecules, sites or subunits per partner or assembly. In the case of B1, the Kd is 89 nM in data set [1] and roughly 1000 nM in data set [2]. For the same molecule, the “stoichiometry N” value in data set [3] was 1.

B2: CSB C-terminal domain (a.a. 1187-1493) (domain or fragment, human, UniProt Q03468 1187-1493, looked up)
chain: HHSVAEEETLEKHLRPKQKPKNSKHCRDAKFEGTRIPHLVKKRRYQKQDSENKSEAKEQSNDDYVLEKLFKKSVGVHSVMKHDAIMDGASPDYVLVEAEANRVAQDALKALRLSRQRCLGAVSGVPTWTGHRGISGAPAGKKSRFGKKRNSNFSVQHPSSTSPTEKCQDGIMKKEGKDNVPEHFSGRAEDADSSSGPLASSSLLAKMRARNHLILPERLESESGHLQEASALLPTTEHDDLLVEMRNFIAFQAHTDGQASTREILQEFESKLSASQSCVFRELLRNLCTFHRTSGGEGIWKLKPEYC
notes: pNIC28-Bsa4 vector: N-terminal His6 followed by a TEV site; no cleavage is described; also called C-terminal CSB construct; source: E. coli BL21(DE3) pLysS, purified (Ni-NTA, Superdex S75)
For the molecule B2, the Kd in data set [1] was 10.7 nM and 12 nM; in data set [2], 29 nM. In addition, the “stoichiometry N” value in data set [3] came out at 2. Turning to B3, the Kd in data set [4] is 4.8 nM and 4 nM.

B4: SNM1A (a.a. 698-1040), tag of the preparation not stated (domain or fragment, human, UniProt Q6PJP8 698-1040, looked up)
chain: KKTCPFYKKIPGTGFTVDAFQYGVVEGCTAYFLTHFHSDHYAGLSKHFTFPVYCSEITGNLLKNKLHVQEQYIHPLPLDTECIVNGVKVVLLDANHCPGAVMILFYLPNGTVILHTGDFRADPSMERSLLADQKVHMLYLDTTYCSPEYTFPSQQEVIRFAINTAFEAVTLNPHALVVCGTYSIGKEKVFLAIADVLGSKVGMSQEKYKTLQCLNIPEINSLITTDMCSSLVHLLPMMQINFKGLQSHLKKCGGKYNQILAFRPTGWTHSNKFTRIADVIPQTKGNISIYGIPYSEHSSYLEMKRFVQWLKPQKIIPTVNVGTWKSRSTMEKYFREWKLEAGY
notes: SNM1A (DCLRE1A), human, core catalytic domain, residues 698-1040; Used for HDX-MS, mass photometry and nuclease assays; Mass photometry legend gives an expected mass of 36 kDa; also called C-terminal SNM1A; source: purified from insect cells
As for B4, the Kd in data set [5] stood at 499 nM. Consider B5, for which the Kd in data set [4] was 8 nM.

B6: CSB (a.a. 1308-1493) (domain or fragment, human, UniProt Q03468 1308-1493, looked up)
chain: VSGVPTWTGHRGISGAPAGKKSRFGKKRNSNFSVQHPSSTSPTEKCQDGIMKKEGKDNVPEHFSGRAEDADSSSGPLASSSLLAKMRARNHLILPERLESESGHLQEASALLPTTEHDDLLVEMRNFIAFQAHTDGQASTREILQEFESKLSASQSCVFRELLRNLCTFHRTSGGEGIWKLKPEYC
notes: source: E. coli BL21(DE3) pLysS, purified (Ni-NTA, Superdex S75)
With B6, in data set [6], the binding result is “binds”.

B7: CSB lacking the N-terminal domain (DN-CSB, a.a. 402-1493) (domain or fragment, human, UniProt Q03468 402-1493, looked up)
chain: YELKPLPKGGKRQKKVPVQEIDDDFFPSSGEEAEAASVGEGGGGGRKVGRYRDDGDEDYYKQRLRRWNKLRLQDKEKRLKLEDDSEESDAEFDEGFKVPGFLFKKLFKYQQTGVRWLWELHCQQAGGILGDEMGLGKTIQIIAFLAGLSYSKIRTRGSNYRFEGLGPTVIVCPTTVMHQWVKEFHTWWPPFRVAILHETGSYTHKKEKLIRDVAHCHGILITSYSYIRLMQDDISRYDWHYVILDEGHKIRNPNAAVTLACKQFRTPHRIILSGSPMQNNLRELWSLFDFIFPGKLGTLPVFMEQFSVPITMGGYSNASPVQVKTAYKCACVLRDTINPYLLRRMKSDVKMSLSLPDKNEQVLFCRLTDEQHKVYQNFVDSKEVYRILNGEMQIFSGLIALRKICNHPDLFSGGPKNLKGLPDDELEEDQFGYWKRSGKMIVVESLLKIWHKQGQRVLLFSQSRQMLDILEVFLRAQKYTYLKMDGTTTIASRQPLITRYNEDTSIFVFLLTTRVGGLGVNLTGANRVVIYDPDWNPSTDTQARERAWRIGQKKQVTVYRLLTAGTIEEKIYHRQIFKQFLTNRVLKDPKQRRFFKSNDLYELFTLTSPDASQSTETSAIFAGTGSDVQTPKCHLKRRIQPAFGADHDVPKRKKFPASNISVNDATSSEEKSEAKGAEVNAVTSNRSDPLKDDPHMSSNVTSNDRLGEETNAVSGPEELSVISGNGECSNSSGTGKTSMPSGDESIDEKLGLSYKRERPSQAQTEAFWENKQMENNFYKHKSKTKHHSVAEEETLEKHLRPKQKPKNSKHCRDAKFEGTRIPHLVKKRRYQKQDSENKSEAKEQSNDDYVLEKLFKKSVGVHSVMKHDAIMDGASPDYVLVEAEANRVAQDALKALRLSRQRCLGAVSGVPTWTGHRGISGAPAGKKSRFGKKRNSNFSVQHPSSTSPTEKCQDGIMKKEGKDNVPEHFSGRAEDADSSSGPLASSSLLAKMRARNHLILPERLESESGHLQEASALLPTTEHDDLLVEMRNFIAFQAHTDGQASTREILQEFESKLSASQSCVFRELLRNLCTFHRTSGGEGIWKLKPEYC
notes: Cloned by InFusion from the full-length CSB pFastBac vector
In the case of B7, the “stoichiometry N” value in data set [7] stood at 2.
